Results: the DeepSol protein solubility set

Assay: soluble on expression in E. coli; label from the status in PepcDB or PDB records

**Q.** For “MNNLISQDKRISSNPVAKIIYGDPVTFLPHLPRKSVVHCSKIWSCRKRITVEYLQHIVEQKNGKERVPILWHFLQKEAELRLVKFLPEILALQRDLVKQFQNVQQVEYSSIRGFLSKHSSDGLRQLLHNRITVFLSTWNKLRRSLETNGEINLPKDYCSTDLDLDTEFEILLPRRRGLGLCATALVSYLIRLHNEIVYAVEKLSKENNSYSVDAAEVTELHVISYEVERDLTPLILSNCQYQVEEGRETVQEFDLEKIQRQIVSRFLQGKPRLSLKGIPTLVYRHDWNYEHLFMDIKNKMAQDSLPSSVISAISGQLQSYSDACEVLSVVEVTLGFLSTAGGDPNMQLNVYTQDILQMGDQTIHVLKALNRCQLKHTIALWQFLSAHKSEQLLRLHKEPFGEISSRYKADLSPENAKLLSTFLNQTGLDAFLLELHEMIILKLKNPQTQTEERFRPQWSLRDTLVSYMQTKESEILPEMASQFPEEILLASCVSVWKTAAVLKWNREMR”, which “soluble on expression in E. coli” value is on record?
**A.** not soluble

**Q.** With “MSLKEGAWGIIGVPFDSTTSYHPGSRFGPIVVREASYGFEKYNTIFNTQLDNIFYDFGDVNVVFGNCKKTCDIIEDTVNELSDLKIKPLTIGGEHSLTIGVLNSLTKKYDDLTVVHLDAHRDLADTFIGELYSHASVMKRVHEMGVKELVQIGIRSASKEEEDFVKNQSNITTFKNNDVFHHLDNIEYYLSIIDTPIYLSIDMDVFDPSIAPTVGNPTPNGIAYGHIEAMLQTLSLKNVVGMDVVETAGDRLGDITAVSASKIIYDFLSLLEGHHHHHH” as the sequence, how does the “soluble on expression in E. coli” value read?
**A.** not soluble

**Q.** For “MAQGFKITYTDQACLLDIQDPQNKESQSFHYALVPRGVEAENIPADYTVIETPIRSVICMTSLQLSNFIKLEELDAVVGITSTRHLFNKKINDRLKDGSIHKIGIEGNFDNEVIMSVNPDLILISPFKRGGYDALKEVGIPLMPHLGYKEMTPLGQAEWIKFVGLLLGREDKANKQFAAIKKRYNELKELTGLEHHHHHH”, which “soluble on expression in E. coli” value is on record?
**A.** not soluble

**Q.** With “MSLGVEENPKLPKSVQRHLEPDERVLFAIKKKISIEKPKWLLVTDRRIIYLDEKVLGRYDFKAIPYQKLEQVVVKLGIMSSEFIIEGEENITLKLGWMDKEEARKAINAIKDALNAIAVEPVSIDVNKGLTSETWVLKKPREFVTRTMPAYQPAQVREEKEDPLEKLKKLKELYDMGVISQEEYEEKRKKLLEEIEGHHHHHH” as the sequence, how does the “soluble on expression in E. coli” value read?
**A.** soluble

**Q.** For “MGSDKIHHHHHHMPHHQYVLTLSCPDRAGIVSAVSTFLFENGQNILDAQQYNDTESGHFFMRVVFNAAAKVIPLASLRTGFGVIAAKFTMGWHMRDRETRRKVMLLVSQSDHCLADILYRWRVGDLHMIPTAIVSNHPRETFSGFDFGDIPFYHFPVNKDTRRQQEAAITALIAQTHTDLVVLARYMQILSDEMSARLAGRCINIHHSFLPGFKGAKPYHQAFDRGVKLIGATAHYVTSALDEGPIIDQDVERISHRDTPADLVRKGRDIERRVLSRALHYHLDDRVILNGRKTVVFTD”, which “soluble on expression in E. coli” value is on record?
**A.** not soluble

**Q.** With “MGSDKIHHHHHHMTKRIMFTGGSGKAGRHVVQYLVEQGCQVLNIDTKPLDNPKVRTLITDITDSGQVFNALSSYMGLHEFDPSLRPQPVDAVVHFAAIPRIMITPDNEVFRINAMGTYNVIEAAVKLGIRKVIVASSETTYGLVFANEPRDPKYFPLDEEYDVDPMDSYALSKVVNEKTARAFAQRNGTDIYALRIGNVIEPHEYSLFPKWFADPGFRKRIAWSYIDARDLGQITLRAIEKDGLGYQVFNAANDDTSSDLPTAELLKRFYPNVPVKAALGEYETLLSNRKARDMLGFRPEHSWRKYVK” as the sequence, how does the “soluble on expression in E. coli” value read?
**A.** not soluble

**Q.** Which “soluble on expression in E. coli” value does the source give for “QADMPLERIIEAEKRVECNDPLVALVVNENNTTVNNICQATHKQLFQLVQWAKLVPHFTSLPLTDQVQLLRAGWNELLIAAFSHRSMQAQDAIVLATGLTVNKSTAHAVGVGNIYDRVPSELVNKMKEMKMDKTELGCLRAIILYNPDVRGIKSVQEVEMLREKIYGVLEEYTRTTHPNEPGRFAKLLLRLPALRSIGLKCLEHLFFFKLIGDVPIDTFLMEMLEGTTDS” here?
**A.** soluble

**Q.** Which “soluble on expression in E. coli” value does the source give for “MKFFSNPKQEAQTHFHLHKDKETMSVSAIFGTGIVTVAASPVLRQFQVPKLGNGGGLGMVIECSSRPQKKSTAHHRKTRPKKTQPWDIKRKPTVYAPLPPLPAEWSPFTLASDDGGAATAAGDLVSGAA” here?
**A.** not soluble

**Q.** With “MSTAAKQNRSTSRVSKKKTAAPKEGAAKKSDKGHKYEYVELAKASLTSAQPQHFYAVVIDATFPYKTNQERYICSLKIVDPTLYLKQQKGAGDASDYATLVLYAKRFEDLPIIHRAGDIIRVHRATLRLYNGQRQFNANVFYSSSWALFSTDKRSVTQEINNQDAVSDTTPFSFSSKHATIEKNEISILQNLRKWANQYFSSYSVISSDMYTALNKAQAQKGDFDVVAKILQVHELDEYTNELKLKDASGQVFYTLSLKLKFPHVRTGEVVRIRSATYDETSTQKKVLILSHYSNIITFIQSSKLAKELRAKIQDDHSVEVASLKKNVSLNAVVLTEVDKKHAALPSTSLQDLFHHADSDKELQAQDTFRTQFYVTKIEPSDVKEWVKGYDRKTKKSSSLKGASGKGDNIFQVQFLVKDASTQLNNNTYRVLLYTQDGLGANFFNVKADNLHKNADARKKLEDSAELLTKFNSYVDAVVERRNGFYLIKDTKLIY” as the sequence, how does the “soluble on expression in E. coli” value read?
**A.** soluble

**Q.** With “EIVHLGLEDNDFDNDINPLETTGAYLSPKEFKEALLDKDTVVLDTRNDYEYDLGHFRGAIRPDIRNFRELPQWVRDNKEKFMDKRVVVYCTGGVRCEKFSGWMVREGYKDVGQLHGGIATYGKDPEVQGELWDGKMYVFDERIAVDVNHVNPTIVGKDWFDGTPCER” as the sequence, how does the “soluble on expression in E. coli” value read?
**A.** not soluble

**Q.** With “MATQQAKILCCGDVNGNFVELIKKISTTEKKNGPFDSLFCVGEFFGDDDDSNEKVINGNIEFPIPTYILGPANPRYSYLYPEESIEFSSNLTYLGKKGLLNTASGLQIAYLSGVEGSSKDLSCFDKADVEELLIPLGTQVGFSGTDILLTSVWPADIARHSHNQPSKPQPGSVLLSKLAAHLKPRYHFAGLGVHYERQPYRNHRVLLEPARHTTRFIGLAAIGNPEKQKWLYACNVKPMRKMEKEELTAQPPNASEFPYRELLEEIAAKETLSRMNGNGQRPEGSQYRFEMGGAEDGAGNGRKRHNDGGNDGPRNKQPVGPCWFCLSNVDAEKHLVVAIGNKCYAAMPKGPLTEDHVMVLSVGHIQSQVSAPVEVRDEIEKFKSAFTLMANKQGKALVTFERNFRTQHLQVQMVMIDKSSSKALKSSFTTAAACAGFELVTMGPDESLLDMVNEGCPYFVAELPDGSKLFTRSMKGFPLHFGREVLASTPILDCEDKVDWKACVLAKEKEVELVNKLKSDFKPFDFTAEDDSD” as the sequence, how does the “soluble on expression in E. coli” value read?
**A.** not soluble

**Q.** With “MGSDKIHHHHHHKITQDDLKQLDGNLTPLGAERAANKDGTIPAWTGKWLGAPTGVAYKAGERYQDPYADEKPLYVITAQNMAQYDKQLTDGLKALFKKYPETFKMPIYATHRDFRYDDGTYKAIRTYAPQIEMLGEGNGVKNSPPTLPYPIPKTGLELLWNLRFASAIESERAVYDQAVVYADGKVAWGKVKYEIWSPKDGQHFDAKAPMNARAFYRMYTELPLRDRGSIITGYTVYDSPEPDSNRAWSYNPGTRRVRQAPEYGYDQPFGPGGFRTVDDDHFFNGSPERYDWKIVGKRELYVPYNNYRMSSPSIKYQDLLTKGHADPSNMRYELHRVWVLEATLKQGFRHQYAKRIIYIDEDSWYGVLADNYDSRGQLWRTNIQANVYAYDAKRFYPTAVFFHDLISGAYLADRLTNEGQPPRLNSEPKYVEAYFSPDAARGAGN” as the sequence, how does the “soluble on expression in E. coli” value read?
**A.** not soluble

**Q.** With “NFCVYMCPYSRVQSVLYDNDTIMTVYDYERGGKVFDPKGIKLWKKPETPNAECTGCELCVKVCPTHIDIRKGMQLECINCLECADAC” as the sequence, how does the “soluble on expression in E. coli” value read?
**A.** not soluble

**Q.** For “MLTRGFTSIGKIASRGLSSTFYQDAFQLSDQLTEDERSLMLSAREYCQERLLPRVTEAYRTEKFDPSLIPEMGSMGLLGAPYQGYGCAGTSTVGYGLIAREVERVDSGYRSTMSVQTSLVIGPIYNYGSEDQKQKYIPDLASGKKIGCFGLTEPNHGSNPGGMETKATWDETTKTYKLNGSKTWISNSPVSDVMVVWARSARHNNKIKGFILERGMKGLTTPKIEGKLSLRASITGQIAMDDVPVPEENLLPNAEGLQGPFGCLNNARLGIAWGALGAAEECFHLARQYTLDRQQFGRPLAQNQLMQLKMADMLTEISLGLQGCLRVSRLKDEGKVQSEQISIIKRNSCGKALEVARKARDMLGGNGIVDEYHIMRHMVNLETVNTYEGTHDVHALILGRAITGLNGFC”, which “soluble on expression in E. coli” value is on record?
**A.** not soluble
